Patent US20210380703A1 (RIGEL PHARMACEUTICALS, published 2021)

Columns and labels:
[1] = molecular target: T1, Goat anti-Human Kappa; assay: ELISA; positive control
T1 construct: Positive control; also called biotinylated goat anti-human kappa light chain
Experimental: (§1) The binding of ACVR2A-specific monoclonal antibodies to human ACVR2A, mouse ACVR2A, biotinylated goat anti-human kappa light chain (positive control) and human Fc (negative control) were determined by ELISA.

[2] = molecular target: Mouse ACVR2A (mouse, UniProt P27038 20-135, limits assumed); assay: ELISA
Experimental: as §1

[3] = molecular target: T2, Human ACVR2A (human, UniProt P27037 20-135, limits assumed); assay: ELISA
T2 construct: also called activin receptor, type II A
Experimental: as §1
Also: test concentration or dose not given here.

Chain of Mouse ACVR2A (P27038 20-135 limits assumed): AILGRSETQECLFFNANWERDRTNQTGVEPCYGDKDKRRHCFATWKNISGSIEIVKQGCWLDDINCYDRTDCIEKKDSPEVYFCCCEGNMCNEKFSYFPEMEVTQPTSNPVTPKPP
T2 sequence (P27037 20-135 limits assumed): as the sequence (P27038 20-135 limits assumed) above, with R20K, I73V counted along it

Row | Binder | optical density [1] [OD] | optical density [2] [OD] | optical density [3] [OD]
1 | 365_E01 (antibody, V domains shown, VH/VL only) VH: EVQLLESGGGLVQPGGSLRLSCAASGFTFSDYSMNWVRQAPGKGLEWVSGINYNSGYKGYADSVKGRFTISRDNSKNTLYLQMNSLRAEDTAVYYCARSANWHDTALDYWGQGTLVTVSS VL: DIQMTQSPSSLSASVGDRVTITCRASQSIISYLNWYQQKPGKAPKLLIYAATSRASGVPSRFSGSGSGTDFTLTISSLQPEDFATYYCQQSYDSPLTFGGGTKVEIK | 3.54 | 2.84 | 2.91
2 | 365_H10 (antibody, V domains shown, VH/VL only) VH: EVQLLESGGGLVQPGGSLRLSCAASGFTFDSYGMNWVRQAPGKGLEWVAGINYNSGYKSYADSVKGRFTISRDNSKNTLYLQMNSLRAEDTAVYYCARSANWHDTHLDYWGQGTLVTVSS VL: DIQMTQSPSSLSASVGDRVTITCRASQSIVTYVNWYQQKPGKAPKLVIYAATSLASGVPSRFSGSGSGTDFTLTISSLQPEDFATYYCQQSYNTPLTFGGGTKVEIK | 3.51 | 2.82 | 2.68
3 | 365_H11 (antibody, V domains shown, VH/VL only) VH: EVQLLESGGGLVQPGGSLRLSCAASGFTFSSYSMNWVRQAPGKGLEWVSGINYNSGYTGYADSVKGRFTISRDNSKNTLYLQMNSLRAEDTAVYYCARSANWHDTALDYWGQGTLVTVSS VL: DIQMTQSPSSLSASVGDRVTITCRASQSILTYLNWYQQKPGKAPKLLIYAATSRASGVPSRFSGSGSGTDFTLTISSLQPEDFATYYCQQSYDSPLTFGGGTKVEIK | 3.61 | 3.35 | 3.24
4 | 366_B08 (antibody, V domains shown, VH/VL only) VH: EVQLLESGGGLVQPGGSLRLSCAASGFTFDSYGMNWVRQAPGKGLEWVSNINYNGGYKGYADSVKGRFTISRDNSKNTLYLQMNSLRAEDTAVYYCARSANWHDTHLDYWGQGTLVTVSS VL: DIQMTQSPSSLSASVGDRVTITCRASQSIVSYLNWYQQKPGKAPKLLIYAATSRHSGVPSRFSGSGSGTDFTLTISSLQPEDFATYYCQQSYDNPLTFGGGTKVEIK | 3.05 | 2.38 | 2.15
5 | 366_B10 (antibody, V domains shown, VH/VL only) VH: EVQLLESGGGLVQPGGSLRLSCAASGFTFSSYGMNWVRQAPGKGLEWVSGINYNSGYTSYADSVKGRFTISRDNSKNTLYLQMNSLRAEDTAVYYCARSANWHDTALDYWGQGTLVTVSS VL: DIQMTQSPSSLSASVGDRVTITCRASQSIISYLNWYQQKPGKAPKLLIYAATSRASGVPSRFSGSGSGTDFTLTISSLQPEDFATYYCQQSYDNPLTFGGGTKVEIK | 3.06 | 2.44 | 2.33
6 | 365_E05 (antibody, V domains shown, VH/VL only) VH: EVQLLESGGGLVQPGGSLRLSCAASGFTFSSYGMHWVRQAPGKGLEWVAGINYNGGYTSYADSVKGRFTISRDNSKNTLYLQMNSLRAEDTAVYYCARSANWHDTALDYWGQGTLVTVSS VL: DIQMTQSPSSLSASVGDRVTITCRASQSIVSYVNWYQQKPGKAPKLLIYAATSLASGVPSRFSGSGSGTDFTLTISSLQPEDFATYYCQQSYDNPLTFGGGTKVEIK | 3.36 | 2.44 | 2.18
7 | 365_E11 (antibody, V domains shown, VH/VL only) VH: EVQLLESGGGLVQPGGSLRLSCAASGFTFDDYSMNWVRQAPGKGLEWVSSINYNGGYKSYADSVKGRFTISRDNSKNTLYLQMNSLRAEDTAVYYCARGATWHDTHLDYWGQGTLVTVSS VL: not shown | 3.57 | 1.74 | 1.74
8 | 365_E07 (antibody, V domains shown, VH/VL only) VH: EVQLLESGGGLVQPGGSLRLSCAASGFTFDSYGMHWVRQAPGKGLEWVSGINYNSGYTSYADSVKGRFTISRDNSKNTLYLQMNSLRAEDTAVYYCAKSANWHDTHLDYWGQGTLVTVSS VL: DIQMTQSPSSLSASVGDRVTITCRASQSILSYLNWYQQKPGKAPKLLIYAATSRASGVPSRFSGSGSGTDFTLTISSLQPEDFATYYCQQSYDNPLTFGGGTKVEIK | 3.51 | 2.7 | 2.38
9 | 365_G11 (antibody, V domains shown, VH/VL only) VH: EVQLLESGGGLVQPGGSLRLSCAASGFTFSSYGMNWVRQAPGKGLEWVANINYNGGYTGYADSVKGRFTISRDNSKNTLYLQMNSLRAEDTAVYYCARSANWHDTALDYWGQGTLVTVSS VL: DIQMTQSPSSLSASVGDRVTITCRASQSIITYVNWYQQKPGKAPKLLIYAVTSRHSGVPSRFSGSGSGTDFTLTISSLQPEDFATYYCQQSYNSPLTFGGGTKVEIK | 3.47 | 1.78 | 1.75
10 | 365_H02 (antibody, V domains shown, VH/VL only) VH: EVQLLESGGGLVQPGGSLRLSCAASGFTFSDYGMNWVRQAPGKGLEWVSSINYNGGYTGYADSVKGRFTISRDNSKNTLYLQMNSLRAEDTAVYYCARSANWHDTHLDYWGQGTLVTVSS VL: DIQMTQSPSSLSASVGDRVTITCRASQSILTYLNWYQQKPGKAPKLLIYAATSRASGVPSRFSGSGSGTDFTLTISSLQPEDFATYYCQQSYENPLTFGGGTKVEIK | 3.58 | 2.91 | 2.73

The remaining lines, values ahead:

Row | optical density [1] [OD] | optical density [2] [OD] | optical density [3] [OD] | Binder
11 | 3.63 | 2.83 | 2.91 | 365_F12 (antibody, V domains shown, VH/VL only) VH: EVQLLESGGGLVQPGGSLRLSCAASGFTFSDYSMNWVRQAPGKGLEWVSGINYNGGYTSYADSVKGRFTISRDNSKNTLYLQMNSLRAEDTAVYYCARSANWHDTHLDYWGQGTLVTVSS VL: DIQMTQSPSSLSASVGDRVTITCRASQSILTYVNWYQQKPGKAPKLVIYAATSRHSGVPSRFSGSGSGTDFTLTISSLQPEDFATYYCQQSYETPLTFGGGTKVEIK
12 | 3.44 | 2.46 | 2.24 | 365_H06 (antibody, V domains shown, VH/VL only) VH: EVQLLESGGGLVQPGGSLRLSCAASGFTFSSYGMNWVRQAPGKGLEWVSGINYNSGYTGYADSVKGRFTISRDNSKNTLYLQMNSLRAEDTAVYYCARSANWHDTALDYWGQGTLVTVSS VL: DIQMTQSPSSLSASVGDRVTITCRASQSISSYVNWYQQKPGKAPKLLIYAATSRASGVPSRFSGSGSGTDFTLTISSLQPEDFATYYCQQSYSTPLTFGGGTKVEIK
13 | 3.42 | 2.23 | 2.14 | 365_F05 (antibody, V domains shown, VH/VL only) VH: EVQLLESGGGLVQPGGSLRLSCAASGFTFSSYGMNWVRQAPGKGLEWVASINYNGGYTSYADSVKGRFTISRDNSKNTLYLQMNSLRAEDTAVYYCARGATWHDTHLDYWGQGTLVTVSS VL: DIQMTQSPSSLSASVGDRVTITCRASQSIVTYVNWYQQKPGKAPKLLIYAATSRASGVPSRFSGSGSGTDFTLTISSLQPEDFATYYCQQSYETPLTFGGGTKVEIK
14 | 3.47 | 2.16 | 1.91 | 365_E09 (antibody, V domains shown, VH/VL only) VH: EVQLLESGGGLVQPGGSLRLSCAASGFTFSSYGMHWVRQAPGKGLEWVASINYNSGYKSYADSVKGRFTISRDNSKNTLYLQMNSLRAEDTAVYYCARSANWHDTALDYWGQGTLVTVSS VL: DIQMTQSPSSLSASVGDRVTITCRASQSILTYVNWYQQKPGKAPKLVIYAATSRASGVPSRFSGSGSGTDFTLTISSLQPEDFATYYCQQSDDSPLTFGGGTKVEIK
15 | 3.46 | 2.19 | 2.1 | 365_H05 (antibody, V domains shown, VH/VL only) VH: EVQLLESGGGLVQPGGSLRLSCAASGFTFSSYGMNWVRQAPGKGLEWVAGINYNGGYTSYADSVKGRFTISRDNSKNTLYLQMNSLRAEDTAVYYCARGATWHDTHLDYWGQGTLVTVSS VL: DIQMTQSPSSLSASVGDRVTITCRASQSILTYVNWYQQKPGKAPKLLIYAATSLHSGVPSRFSGSGSGTDFTLTISSLQPEDFATYYCQQSYSTPLTFGGGTKVEIK
16 | 3.45 | 2.65 | 2.48 | 365_G01 (antibody, V domains shown, VH/VL only) VH: EVQLLESGGGLVQPGGSLRLSCAASGFTFDSYGMNWVRQAPGKGLEWVAGINYNSGYKSYADSVKGRFTISRDNSKNTLYLQMNSLRAEDTAVYYCARSANWHDTALDYWGQGTLVTVSS VL: DIQMTQSPSSLSASVGDRVTITCRASQSILTYVNWYQQKPGKAPKLLIYATTSRASGVPSRFSGSGSGTDFTLTISSLQPEDFATYYCQQSYDSPLTFGGGTKVEIK
17 | 3.4 | 2.08 | 1.95 | 365_F06 (antibody, V domains shown, VH/VL only) VH: EVQLLESGGGLVQPGGSLRLSCAASGFTFSSYGMNWVRQAPGKGLEWVAGINYNSGYKSYADSVKGRFTISRDNSKNTLYLQMNSLRAEDTAVYYCARSANWHDTALDYWGQGTLVTVSS VL: DIQMTQSPSSLSASVGDRVTITCRASQSILSYVNWYQQKPGKAPKLLIYAATSRASGVPSRFSGSGSGTDFTLTISSLQPEDFATYYCQQSDNLPLTFGGGTKVEIK
18 | 3.44 | 2.99 | 3.24 | 366_B12 (antibody, V domains shown, VH/VL only) VH: EVQLLESGGGLVQPGGSLRLSCAASGFTFSSYSMNWVRQAPGKGLEWVAGINYNSGYKGYADSVKGRFTISRDNSKNTLYLQMNSLRAEDTAVYYCARSANWHDTALDYWGQGTLVTVSS VL: DIQMTQSPSSLSASVGDRVTITCRASQSILTYVNWYQQKPGKAPKLLIYAATSRASGVPSRFSGSGSGTDFTLTISSLQPEDFATYYCQQSYDNPLTFGGGTKVEIK
19 | 3.78 | 2.91 | 2.97 | 365_H12 (antibody, V domains shown, VH/VL only) VH: EVQLLESGGGLVQPGGSLRLSCAASGFTFSSYSMNWVRQAPGKGLEWVSNINYNGGYKSYADSVKGRFTISRDNSKNTLYLQMNSLRAEDTAVYYCARSANWHDTHLDYWGQGTLVTVSS VL: DIQMTQSPSSLSASVGDRVTITCRASQSIITYVNWYQQKPGKAPKLLIYAATSRASGVPSRFSGSGSGTDFTLTISSLQPEDFATYYCQQSYSTPLTFGGGTKVEIK
